Laboratory results published in article doi:10.1101/2024.02.27.582368 (bioRxiv, 2024).

What was measured:
[1] = biological target: BC1280 (CapP, CalY-assisting polymerization protein), full-length recombinant protein (Bacillus cereus ATCC14579) (UniProt Q81GC7); assay: native gel or EMSA
native gel or EMSA = biological target: the molecule itself; assay: native gel or EMSA

| Molecule | stoichiometry N [1] [subunits] | stoichiometry N (native gel or EMSA) [subunits] |
| --- | --- | --- |
| BC1280 (CapP, CalY-assisting polymerization protein), full-length recombinant protein (from UniProt Q81GC7 1-279) (natural protein) | 15 | – |
| N-domain39-190 of BC1280 (domain or fragment, Bacillus cereus ATCC14579, UniProt Q81GC7 39-190, looked up) AAFIHETKVEATLSTAIIFPKTVNTLKEQSEKHKQFIEREYGTMKGKLKATSIEEIKQAISVWQQGREKIVAEKEALQNVYTEIEAPYNQIQEELKVNKDESMQQVSIYVNEGFRSIKEKRDYIEKEISLKAIDEQIQALQQQLNVAIEAEG | – | ~15 |
